± gives the uncertainty stated by the source.

The values below come from the Human Domainome abundance scans (Beltran et al. 2025).

This data set can be described thus: abundance fitness (aPCA) (normalised: wild type 0, dead -1); higher = more abundant; growth selection in yeast, the domain comes from the species named. The following applies: Homo sapiens.
“SAFB-like transcription modulator I28N, Q9NWH9”: the abundance fitness was -0.59 ± 0.23.

As to “SAFB-like transcription modulator I28P, Q9NWH9”, the abundance fitness amounted to 0.193 ± 0.13. With “SAFB-like transcription modulator I28Q, Q9NWH9”, the abundance fitness is -0.36 ± 0.13. To “SAFB-like transcription modulator I28R, Q9NWH9” belongs -0.018 ± 0.057; to “SAFB-like transcription modulator I28S, Q9NWH9”, -0.411 ± 0.12; to “SAFB-like transcription modulator I28T, Q9NWH9”, -0.129 ± 0.12. With “SAFB-like transcription modulator I28V, Q9NWH9”, the abundance fitness is 0.01 ± 0.069.

Consider “SAFB-like transcription modulator I28W, Q9NWH9”, for which the abundance fitness is -0.365 ± 0.11. For the substance “SAFB-like transcription modulator I28Y, Q9NWH9”, the abundance fitness is -0.306 ± 0.15. Substance “SAFB-like transcription modulator I41A, Q9NWH9” registered an abundance fitness of 0.075 ± 0.075. Next, “SAFB-like transcription modulator I41C, Q9NWH9”: -0.08 ± 0.15. Next, “SAFB-like transcription modulator I41D, Q9NWH9”: -0.457 ± 0.11; “SAFB-like transcription modulator I41E, Q9NWH9”: -0.139 ± 0.083. To “SAFB-like transcription modulator I41F, Q9NWH9” belongs 0.197 ± 0.079; to “SAFB-like transcription modulator I41G, Q9NWH9”, -0.158 ± 0.064.

Turning to “SAFB-like transcription modulator I41H, Q9NWH9”, the abundance fitness came out at 0.157 ± 0.093. “SAFB-like transcription modulator I41K, Q9NWH9”: the abundance fitness was -0.336 ± 0.11.

On to “SAFB-like transcription modulator I41L, Q9NWH9”, for which the abundance fitness was -0.087 ± 0.065. Turning to “SAFB-like transcription modulator I41M, Q9NWH9”, the abundance fitness is 0.08 ± 0.075. In the case of “SAFB-like transcription modulator I41N, Q9NWH9”, the abundance fitness is -0.68 ± 0.2. Next, “SAFB-like transcription modulator I41Q, Q9NWH9”: -0.022 ± 0.082. As to “SAFB-like transcription modulator I41R, Q9NWH9”, the abundance fitness was -0.202 ± 0.066. Next, “SAFB-like transcription modulator I41S, Q9NWH9”: -0.01 ± 0.042; “SAFB-like transcription modulator I41T, Q9NWH9”: -0.337 ± 0.079. On to “SAFB-like transcription modulator I41V, Q9NWH9”, for which the abundance fitness is -0.067 ± 0.063. To “SAFB-like transcription modulator I41W, Q9NWH9” belongs -0.195 ± 0.092; to “SAFB-like transcription modulator I41Y, Q9NWH9”, -0.172 ± 0.11. As for “SAFB-like transcription modulator I49A, Q9NWH9”, the abundance fitness was found to be 0 ± 0.063. In the case of “SAFB-like transcription modulator I49C, Q9NWH9”, the abundance fitness was -0.138 ± 0.056.

As for “SAFB-like transcription modulator I49D, Q9NWH9”, the abundance fitness is -0.154 ± 0.11.

On to “SAFB-like transcription modulator I49E, Q9NWH9”, for which the abundance fitness is -0.056 ± 0.071. For “SAFB-like transcription modulator I49G, Q9NWH9”, the abundance fitness was -0.406 ± 0.049. To “SAFB-like transcription modulator I49H, Q9NWH9” belongs -0.29 ± 0.1.

Consider “SAFB-like transcription modulator I49K, Q9NWH9”, for which the abundance fitness is -0.401 ± 0.078. In the case of “SAFB-like transcription modulator I49L, Q9NWH9”, the abundance fitness is -0.075 ± 0.045.

Take “SAFB-like transcription modulator I49M, Q9NWH9”: the abundance fitness amounted to 0.03 ± 0.057.
